Assay results published in patent US20180326005A1 (HEAT BIOLOGICS, published 2018).
Read-outs that look alike come from different tables or passages of the source. Blank lines part the entries; values can stand above or below the molecule they belong to.

Experiments:
neonatal receptor FcRn [1] = biological target: T1, neonatal receptor FcRn (human, UniProt P55899 24-297; P61769 21-119); test: SPR summary table, row group FcRn
T1 construct: also called recombinant human FcRn

human FcγR1A [2] = biological target: T2, human FcγR1A (human, UniProt P12314 16-288); test: SPR summary table, row group FcγR1A
T2 construct: also called recombinant human FcγR1A

[3] = biological target: polyhistidine-tagged recombinant human CD47 (human) (UniProt Q08722); test: SPR summary table, row group CD47
[4] = biological target: T3, polyhistidine-tagged recombinant human OX40 (human, UniProt P43489 29-216); test: SPR summary table, row group OX40
T3 construct: also called recombinant OX40-his; hOX40-his; not shown: polyhistidine tag
T3 sequence (looked up): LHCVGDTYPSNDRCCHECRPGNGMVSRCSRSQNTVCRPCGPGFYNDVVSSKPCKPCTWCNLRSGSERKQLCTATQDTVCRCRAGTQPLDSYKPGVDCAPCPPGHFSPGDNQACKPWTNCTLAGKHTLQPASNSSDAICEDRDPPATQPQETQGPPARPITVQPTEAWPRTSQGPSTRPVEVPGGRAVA
Source text: (§1) Specifically, polyhistidine-tagged versions of recombinant human CD47 and human OX40 was bound to ProteOn HTG tris-NTA chips (BIORAD).

[5] = biological target: T3, polyhistidine-tagged recombinant human …; test: SPR summary table, row group OX40; remark: listed apart in the source
Source text: (§2) Specifically, polyhistidine-tagged versions of recombinant human PD-L1, PD-L2 and human OX40 was bound to ProteOn HTG tris-NTA chips (BIORAD).

[6] = biological target: T3, polyhistidine-tagged recombinant human …; test: SPR summary table, row group OX40; remark: listed apart in the source
Source text: as §2

mouse PD-1-Fc = biological target: T4, mouse PD-1-Fc (mouse, UniProt Q02242 25-169; P01868 98-324 = IgG part, limits assumed); test: ELISA: plate-bound mOX40-hFc, two-fold dilutions of CHO-K1 culture medium, detection with rabbit anti-mPD-1 and anti-rabbit IgG-HRP
T4 construct: extracellular domain;domain: Fc; Control construct, tested as CHO-K1 culture medium; also called mPD-1-Fc; recombinant mouse PD1-Fc
Source text: (§3) A rabbit polyclonal antibody to mPD-1 was used to detect the mPD-1 domain in the chimeric protein and subsequently detected using a horseradish peroxidase (HRP)-conjugated polyclonal antibody to rabbit IgG (H+L).
as §3, with “(H+L). […] A horseradish peroxidase (HRP)-conjugated polyclonal antibody to mouse IgG (H+L) was used for the detection of the bound proteins.” for “(H+L).”

[7] = biological target: T5, polyhistidine-tagged recombinant human PD-L2 (human, UniProt Q9BQ51 20-219); test: SPR summary table, row group PD-L2
T5 construct: not shown: polyhistidine tag
T5 sequence (looked up): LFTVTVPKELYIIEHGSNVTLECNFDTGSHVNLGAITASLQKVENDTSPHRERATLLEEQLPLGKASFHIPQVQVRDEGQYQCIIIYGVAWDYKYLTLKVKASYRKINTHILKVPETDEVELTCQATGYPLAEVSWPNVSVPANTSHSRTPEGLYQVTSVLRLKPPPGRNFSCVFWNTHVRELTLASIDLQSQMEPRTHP
Source text: as §2

neonatal receptor FcRn [8] = biological target: T1, neonatal receptor FcRn; test: SPR summary table, row group FcRn; the text gives 73 nM for this pair
[9] = biological target: T3, polyhistidine-tagged recombinant human …; test: SPR, his-tagged ligand on ProteOn HTG tris-NTA chip
Source text: as §2, §1

[10] = biological target: T5, polyhistidine-tagged recombinant human …; test: as above
Source text: as §2, §1

[11] = biological target: T6, polyhistidine-tagged recombinant human PD-L1 (human, UniProt Q9NZQ7 19-239); test: as above
T6 construct: also called hPD-L1; not shown: polyhistidine tag
Source text: as §2, §1

neonatal receptor FcRn [12] = biological target: T1, neonatal receptor FcRn; test: SPR, chip-bound Fc receptor
FcγR2B = biological target: T7, FcγR2B (human, UniProt P31994 46-217, limits assumed); test: SPR, chip-bound Fc receptor
T7 sequence (looked up): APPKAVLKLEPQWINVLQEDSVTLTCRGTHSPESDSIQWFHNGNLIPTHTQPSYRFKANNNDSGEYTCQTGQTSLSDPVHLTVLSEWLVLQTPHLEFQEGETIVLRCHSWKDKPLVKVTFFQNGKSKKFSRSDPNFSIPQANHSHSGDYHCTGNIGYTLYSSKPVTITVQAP

[13] = biological target: T6, polyhistidine-tagged recombinant human …; test: SPR summary table, row group PD-L1
Source text: as §2

[14] = biological target: human PD-L1 on cells (CHO-K1/hPD-L1, HCC827, PC3, HeLa-PD-L1) (human, UniProt Q9NZQ7 19-290); test: cell-based or functional assay
human FcγR1A [15] = biological target: T2, human FcγR1A; test: SPR, chip-bound human FcγR1A, analyte in flow
[16] = biological target: T8, human OX40 on cells (Jurkat/hOX40, activated human T cells) (human, UniProt P43489 29-277); test: flow cytometry, Jurkat-hOX40 against parental Jurkat cells, Fc-Fusions: PE-A
T8 construct: whole, on cells; also called Jurkat/OX40; cell surface expressed OX40
T8 sequence (looked up): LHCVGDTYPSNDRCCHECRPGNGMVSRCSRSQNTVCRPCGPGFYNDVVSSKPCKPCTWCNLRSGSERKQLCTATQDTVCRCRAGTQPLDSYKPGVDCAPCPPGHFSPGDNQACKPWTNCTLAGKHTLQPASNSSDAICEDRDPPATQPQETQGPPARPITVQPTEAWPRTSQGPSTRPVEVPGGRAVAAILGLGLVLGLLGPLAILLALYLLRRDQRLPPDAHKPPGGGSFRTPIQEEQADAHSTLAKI

polyhistidine-tagged recombinant human CD47 (human), sequence (Q08722 19-139 limits assumed): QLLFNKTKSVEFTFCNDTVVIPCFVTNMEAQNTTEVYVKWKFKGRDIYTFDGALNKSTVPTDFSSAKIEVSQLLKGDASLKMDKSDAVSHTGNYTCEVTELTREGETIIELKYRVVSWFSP
T6 sequence (Q9NZQ7 19-239 limits assumed): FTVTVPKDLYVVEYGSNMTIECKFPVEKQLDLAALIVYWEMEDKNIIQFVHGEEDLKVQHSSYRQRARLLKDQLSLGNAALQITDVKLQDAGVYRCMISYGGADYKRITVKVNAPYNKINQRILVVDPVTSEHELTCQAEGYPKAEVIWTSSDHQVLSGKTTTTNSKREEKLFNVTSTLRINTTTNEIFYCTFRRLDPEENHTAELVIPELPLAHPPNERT
T2 sequence (P12314 16-288 limits assumed): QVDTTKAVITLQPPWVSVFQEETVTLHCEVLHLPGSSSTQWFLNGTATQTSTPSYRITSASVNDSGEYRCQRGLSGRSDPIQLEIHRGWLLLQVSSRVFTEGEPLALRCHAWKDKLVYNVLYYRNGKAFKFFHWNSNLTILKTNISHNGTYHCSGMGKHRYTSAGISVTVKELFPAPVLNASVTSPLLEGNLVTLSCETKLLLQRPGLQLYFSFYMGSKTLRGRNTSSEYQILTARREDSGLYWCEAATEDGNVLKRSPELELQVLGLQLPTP
human PD-L1 on cells (CHO-K1/hPD-L1, HCC827, PC3, HeLa-PD-L1), sequence (Q9NZQ7 19-290): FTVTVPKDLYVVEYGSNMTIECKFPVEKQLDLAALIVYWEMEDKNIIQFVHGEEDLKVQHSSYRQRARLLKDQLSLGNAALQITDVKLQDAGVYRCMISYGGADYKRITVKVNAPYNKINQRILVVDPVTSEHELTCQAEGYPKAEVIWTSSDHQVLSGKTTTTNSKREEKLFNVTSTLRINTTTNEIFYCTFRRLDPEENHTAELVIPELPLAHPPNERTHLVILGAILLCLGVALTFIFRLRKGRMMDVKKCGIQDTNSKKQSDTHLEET
T4 sequence (Q02242 other isoform, or with tags, fused parts or gaps limits assumed): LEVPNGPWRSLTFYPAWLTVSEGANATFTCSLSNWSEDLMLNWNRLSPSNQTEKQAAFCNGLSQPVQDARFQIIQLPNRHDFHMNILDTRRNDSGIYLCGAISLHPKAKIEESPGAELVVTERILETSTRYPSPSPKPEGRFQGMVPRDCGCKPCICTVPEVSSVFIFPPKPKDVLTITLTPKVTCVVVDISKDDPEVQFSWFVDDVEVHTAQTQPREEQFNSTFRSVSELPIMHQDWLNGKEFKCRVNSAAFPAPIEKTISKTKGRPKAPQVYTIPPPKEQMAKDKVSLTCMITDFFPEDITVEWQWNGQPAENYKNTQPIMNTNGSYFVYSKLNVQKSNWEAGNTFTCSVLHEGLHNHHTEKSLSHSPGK

Molecule: CD172a-Fc (Fc fusion)
Kd [3]: 3.16 nM | koff [3]: 0.00239 s⁻¹ | kon [3]: 756000 M⁻¹ s⁻¹

B1: recombinant human OX40L-Fc (Fc fusion, UniProt P23510 51-183, looked up)
chain: QVSHRYPRIQSIKVQFTEYKKEKGFILTSQKEDEIMKVQNNSVIINCDGFYLISLKGYFSQEVNISLHYQKDEEPLFQLKKVRSVNSLMVASLTYKDKVYLNVTTDNTSLDDFHVNGGELILIHQNPGEFCVL
notes: Positive control in SPR; not shown: Fc
Kd [4]: 9.28 nM | koff [4]: 0.00069 s⁻¹ | Kd [5]: 9.28 nM | koff [5]: 0.00069 s⁻¹ | Kd [6]: 9.28 nM | koff [6]: 0.00069 s⁻¹

B2: recombinant mOX40 fused to human Fc (Fc fusion, mouse, UniProt P47741 20-211, looked up)
chain: VTARRLNCVKHTYPSGHKCCRECQPGHGMVSRCDHTRDTLCHPCETGFYNEAVNYDTCKQCTQCNHRSGSELKQNCTPTQDTVCRCRPGTQPRQDSGYKLGVDCVPCPPGHFSPGNNQACKPWTNCTLSGKQTRHPASDSLDAVCEDRSLLATLLWETQRPTFRPTTVQSTTVWPRTSELPSPPTLVTPEGP
notes: also called mOX40-hFc; not shown: human Fc
binding result (mouse PD-1-Fc): no binding (tested: 1:1 (undiluted culture medium))

B4: human PD1-Fc-TL1A (Fc fusion)
chain: LDSPDRPWNPPTFSPALLVVTEGDNATFTCSFSNTSESFVLNWYRMSPSNQTDKLAAFPEDRSQPGQDCRFRVTQLPNGRDFHMSVVRARRNDSGTYLCGAISLAPKAQIKESLRAELRVTERRAEVPTAHPSPSPRPAGQFQSKYGPPCPSCPAPEFLGGPSVFLFPPKPKDTLMISRTPEVTCVVVDVSQEDPEVQFNWYVDGVEVHNAKTKPREEQFNSTYRVVSVLTVLHQDWLSGKEYKCKVSSKGLPSSIEKTISNATGQPREPQVYTLPPSQEEMTKNQVSLTCLVKGFYPSDIAVEWESNGQPENNYKTTPPVLDSDGSFFLYSRLTVDKSSWQEGNVFSCSVMHEALHNHYTQKSLSLSLGKIEGRMDRAQGEACVQFQALKGQEFAPSHQQVYAPLRADGDKPRAHLTVVRQTPTQHFKNQFPALHWEHELGLAFTKNRMNYTNKFLLIPESGDYFIYSQVTFRGMTSECSEIRQAGRPNKPDSITVVITKVTDSYPEPTQLLMGTKSVCEVGSNWFQPIYLGAMFSLQEGDKLMVNVSDISLVDYTKEDKTFFGAFLL
notes: The entry includes the native leader; no cleavage site is stated; also called hPD1-Fc-TL1A
binding result [16]: no binding

Now from value to molecule:

Kd (neonatal receptor FcRn [1]): 4.87 nM | koff (neonatal receptor FcRn [1]): 0.0046 s⁻¹ | kon (neonatal receptor FcRn [1]): 945000 M⁻¹ s⁻¹ | Kd (human FcγR1A [2]): 17.7 nM | koff (human FcγR1A [2]): 0.00044 s⁻¹ | kon (human FcγR1A [2]): 24900 M⁻¹ s⁻¹
Molecule: human immunoglobulin IgG1 (antibody)

koff (neonatal receptor FcRn [1]): 0.00234 s⁻¹ | kon (neonatal receptor FcRn [1]): 255000 M⁻¹ s⁻¹ | koff [7]: 6.7e-05 s⁻¹ | kon [7]: 54000 M⁻¹ s⁻¹ | Kd (neonatal receptor FcRn [8]): 9.17 nM | Kd [9]: 0.246 nM | Kd [10]: 1.24 nM | Kd [11]: 2.08 nM | off-rate, fold slower than recombinant PD-1-Fc [11]: ~20 fold | Kd (neonatal receptor FcRn [12]): 73 nM | binding result (FcγR2B): no binding | koff [13]: 0.000176 s⁻¹ | kon [13]: 84500 M⁻¹ s⁻¹ | increase in IL-2 from baseline (no SL-279252) to 5 ug/mL of SL-279252, T cell co-culture with HCC827 (PD-L1high) [14]: 1.92 fold | increase in IL-2 from baseline (no SL-279252) to 5 ug/mL of SL-279252, T cell co-culture with PC3 (PD-L1low) [14]: 1.27 fold | koff [6]: 1.9e-05 s⁻¹ | kon [6]: 77300 M⁻¹ s⁻¹ | binding result (human FcγR1A [15]): no binding (tested: 500 nM)
B3: SL-279252 (human PD-1-Fc-OX40L) (Fc fusion)
chain: LDSPDRPWNPPTFSPALLVVTEGDNATFTCSFSNTSESFVLNWYRMSPSNQTDKLAAFPEDRSQPGQDCRFRVTQLPNGRDFHMSVVRARRNDSGTYLCGAISLAPKAQIKESLRAELRVTERRAEVPTAHPSPSPRPAGQFQSKYGPPCPSCPAPEFLGGPSVFLFPPKPKDTLMISRTPEVTCVVVDVSQEDPEVQFNWYVDGVEVHNAKTKPREEQFNSTYRVVSVLTVLHQDWLSGKEYKCKVSSKGLPSSIEKTISNATGQPREPQVYTLPPSQEEMTKNQVSLTCLVKGFYPSDIAVEWESNGQPENNYKTTPPVLDSDGSFFLYSRLTVDKSSWQEGNVFSCSVMHEALHNHYTQKSLSLSLGKIEGRMDQVSHRYPRIQSIKVQFTEYKKEKGFILTSQKEDEIMKVQNNSVIINCDGFYLISLKGYFSQEVNISLHYQKDEEPLFQLKKVRSVNSLMVASLTYKDKVYLNVTTDNTSLDDFHVNGGELILIHQNPGEFCVL
notes: Glycosylated; about 50% of the non-reduced protein ran as a dimer; also called hPD-1-Fc-OX40L
